Residue numbers refer to the chain shown, from its start.
B1: NRC3_random_hg19_443_o1 (dsDNA)
DNA 1: GCTAGTACTTGGTCCATAGCACTACTACTCACTTTGGCGATTGACAGCGTAGAATGAAGG
DNA 2: CCTTCATTCTACGCTGTCAATCGCCAAAGTGAGTAGTAGTGCTATGGACCAAGTACTAGC
B2: NRC3_random_hg19_63_o1 (dsDNA)
DNA 1: GCTTTCAAGGCAGTAAGAGTTTGCTGTGCATCAGCTGCGATTGACAGCGTAGAATGAAGG
DNA 2: CCTTCATTCTACGCTGTCAATCGCAGCTGATGCACAGCAAACTCTTACTGCCTTGAAAGC
B3: NRC3_wobSeed63_DR2_T8G_o1 (dsDNA)
DNA 1: GCCGAACGAGGTCACCAGGACAGTGAAGAGGTTGGAGCGATTGACAGCGTAGAATGAAGG
DNA 2: CCTTCATTCTACGCTGTCAATCGCTCCAACCTCTTCACTGTCCTGGTGACCTCGTTCGGC
B4: NRC3_wobSeed109_DR4_T15C_o1 (dsDNA)
DNA 1: GCCGTCCAAGGTCACAGGAGGTCAGTGAAGACAGATGCGATTGACAGCGTAGAATGAAGG
DNA 2: CCTTCATTCTACGCTGTCAATCGCATCTGTCTTCACTGACCTCCTGTGACCTTGGACGGC
B5: NRC3_random_hg19_114_o1 (dsDNA)
DNA 1: GCCAAGGCAGCCAGAACTGATGATTGCACTGTGTGGGCGATTGACAGCGTAGAATGAAGG
DNA 2: CCTTCATTCTACGCTGTCAATCGCCCACACAGTGCAATCATCAGTTCTGGCTGCCTTGGC
B6: NRC3_wobSeed13_DR0_A8G_o1 (dsDNA)
DNA 1: GCCGTCCGAGGTCAAGGTCAGTGAAAGAGACTCGAAGCGATTGACAGCGTAGAATGAAGG
DNA 2: CCTTCATTCTACGCTGTCAATCGCTTCGAGTCTCTTTCACTGACCTTGACCTCGGACGGC
B7: NRC3_wobSeed53_DR2_C8A_o1 (dsDNA)
DNA 1: GCCCTTAAGGGTCACGAGGTTATAGCACGACGAGCGGCGATTGACAGCGTAGAATGAAGG
DNA 2: CCTTCATTCTACGCTGTCAATCGCCGCTCGTCGTGCTATAACCTCGTGACCCTTAAGGGC
B8: NRC3_random_hg19_45_o1 (dsDNA)
DNA 1: GCAAACACAAAGTTTGGGCTGCCTTCTCTAGAGATTGCGATTGACAGCGTAGAATGAAGG
DNA 2: CCTTCATTCTACGCTGTCAATCGCAATCTCTAGAGAAGGCAGCCCAAACTTTGTGTTTGC
B9: NRC3_wobSeed73_DR3_G20T_o1 (dsDNA)
DNA 1: GCCAAACTAGGTCACAGAGTTCAAAGTCCGTGCGTAGCGATTGACAGCGTAGAATGAAGG
DNA 2: CCTTCATTCTACGCTGTCAATCGCTACGCACGGACTTTGAACTCTGTGACCTAGTTTGGC
B10: NRC3_wobSeed113_DR4_A14C_o1 (dsDNA)
DNA 1: GCATATGTAGGTTCGCTGGGGTCATTCAGACTAGGCGCGATTGACAGCGTAGAATGAAGG
DNA 2: CCTTCATTCTACGCTGTCAATCGCGCCTAGTCTGAATGACCCCAGCGAACCTACATATGC
B11: NRC3_wobSeed65_DR2_C25G_o1 (dsDNA)
DNA 1: GCATATGTAGGTTATCGGGTCATTGAGTTTGCGCATGCGATTGACAGCGTAGAATGAAGG
DNA 2: CCTTCATTCTACGCTGTCAATCGCATGCGCAAACTCAATGACCCGATAACCTACATATGC
B12: NRC3_wobSeed65_DR2_C16G_o1 (dsDNA)
DNA 1: B11 DNA 1 with C16G, G25C
DNA 2: B11 DNA 2 with C36G, G45C
B13: NRC3_wobSeed76_DR3_C12T_o1 (dsDNA)
DNA 1: GCCCTACTGGGTCAAAAAGGTCATTGATGCCGATAAGCGATTGACAGCGTAGAATGAAGG
DNA 2: CCTTCATTCTACGCTGTCAATCGCTTATCGGCATCAATGACCTTTTTGACCCAGTAGGGC
B14: NRC3_wobSeed74_DR3_T9G_o1 (dsDNA)
DNA 1: GCTCTAGTGGGTCACGGAGGTCACACACGACGGGTAGCGATTGACAGCGTAGAATGAAGG
DNA 2: CCTTCATTCTACGCTGTCAATCGCTACCCGTCGTGTGTGACCTCCGTGACCCACTAGAGC
B15: NRC3_wobSeed74_DR3_G16C_o1 (dsDNA)
DNA 1: B14 DNA 1 with G9T, G16C
DNA 2: B14 DNA 2 with C45G, C52A
B16: NRC3_wobSeed95_DR3_G12T_o1 (dsDNA)
DNA 1: GCAGAACGAGGTCAATGAGTTGATAGCACGGGTGGCGCGATTGACAGCGTAGAATGAAGG
DNA 2: CCTTCATTCTACGCTGTCAATCGCGCCACCCGTGCTATCAACTCATTGACCTCGTTCTGC
B17: NRC3_wobSeed95_DR3_A9G_o1 (dsDNA)
DNA 1: B16 DNA 1 with A9G, T12G
DNA 2: B16 DNA 2 with A49C, T52C
B18: NRC3_wobSeed95_DR3_G22T_o1 (dsDNA)
DNA 1: B16 DNA 1 with T12G, G22T
DNA 2: B16 DNA 2 with C39A, A49C
B19: NRC3_wobSeed94_DR3_G23A_o1 (dsDNA)
DNA 1: GCCTACCAAGGTGAACAAGGTCATTGATTACTATTCGCGATTGACAGCGTAGAATGAAGG
DNA 2: CCTTCATTCTACGCTGTCAATCGCGAATAGTAATCAATGACCTTGTTCACCTTGGTAGGC
B20: NRC3_wobSeed94_DR3_A17G_o1 (dsDNA)
DNA 1: B19 DNA 1 with A17G, A23G
DNA 2: B19 DNA 2 with T38C, T44C
B21: NRC3_wobSeed94_DR3_G13T_o1 (dsDNA)
DNA 1: B19 DNA 1 with G13T, A23G
DNA 2: B19 DNA 2 with T38C, C48A
B22: NRC3_wobSeed77_DR3_G20T_o1 (dsDNA)
DNA 1: GCACTTACGGGTCAACGAGTTTATAGCACGCGTATAGCGATTGACAGCGTAGAATGAAGG
DNA 2: CCTTCATTCTACGCTGTCAATCGCTATACGCGTGCTATAAACTCGTTGACCCGTAAGTGC
B23: NRC3_wobSeed92_DR3_A20T_o1 (dsDNA)
DNA 1: GCAGAATGAGGTTATTAAGTTCAGGGAATTGCGGTCGCGATTGACAGCGTAGAATGAAGG
DNA 2: CCTTCATTCTACGCTGTCAATCGCGACCGCAATTCCCTGAACTTAATAACCTCATTCTGC
B24: NRC3_wobSeed92_DR3_A20G_o1 (dsDNA)
DNA 1: B23 DNA 1 with T20G
DNA 2: B23 DNA 2 with A41C
B25: NRC3_wobSeed28_DR1_T26G_o1 (dsDNA)
DNA 1: GCCCTACTGGGCCAAAGGTCATTGAGTCCAATGCTCGCGATTGACAGCGTAGAATGAAGG
DNA 2: CCTTCATTCTACGCTGTCAATCGCGAGCATTGGACTCAATGACCTTTGGCCCAGTAGGGC
B26: NRC3_wobSeed82_DR3_G22C_o1 (dsDNA)
DNA 1: GCATCGAAAGGTCGACGAGGTCAGTATACACCGTTTGCGATTGACAGCGTAGAATGAAGG
DNA 2: CCTTCATTCTACGCTGTCAATCGCAAACGGTGTATACTGACCTCGTCGACCTTTCGATGC
B27: NRC3_wobSeed81_DR3_A13C_o1 (dsDNA)
DNA 1: GCATCTCTAGGTCACCAAGTTCAGTGAATGCCGAACGCGATTGACAGCGTAGAATGAAGG
DNA 2: CCTTCATTCTACGCTGTCAATCGCGTTCGGCATTCACTGAACTTGGTGACCTAGAGATGC

Biological target: RXRa (Homo sapiens, UniProt P19793)
Test: no ligand; PBM; 180 nM; PBS pH 7.4, 2% milk, 0.02% Triton X-100, 1 mM DTT, BSA, 0.4 mg/ml salmon testes DNA
Conditions: tags: His cleaved; chain copies: 2; label: surface-attached array probe

Sequence of RXRa (P19793 whole entry): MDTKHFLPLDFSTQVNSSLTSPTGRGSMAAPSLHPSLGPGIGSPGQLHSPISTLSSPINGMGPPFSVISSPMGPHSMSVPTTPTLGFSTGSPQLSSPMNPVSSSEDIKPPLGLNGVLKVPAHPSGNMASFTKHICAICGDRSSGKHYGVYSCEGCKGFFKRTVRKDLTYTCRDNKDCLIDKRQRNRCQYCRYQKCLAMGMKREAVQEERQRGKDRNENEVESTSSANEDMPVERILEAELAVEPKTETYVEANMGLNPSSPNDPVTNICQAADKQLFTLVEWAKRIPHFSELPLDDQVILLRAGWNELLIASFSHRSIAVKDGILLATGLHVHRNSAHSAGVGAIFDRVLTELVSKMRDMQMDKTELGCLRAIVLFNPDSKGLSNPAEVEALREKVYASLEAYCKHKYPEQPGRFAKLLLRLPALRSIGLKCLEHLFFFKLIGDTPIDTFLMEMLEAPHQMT

Binder | binding signal
B1 | 0.04 PBM z-score against 500 random probes
B2 | -1.05 PBM z-score against 500 random probes
B3 | 7.78 PBM z-score against 500 random probes
B4 | 7.9 PBM z-score against 500 random probes
B5 | -0.24 PBM z-score against 500 random probes
B6 | 8 PBM z-score against 500 random probes
B7 | 8.38 PBM z-score against 500 random probes
B8 | -0.51 PBM z-score against 500 random probes

Biological target: RARb:RXRa (Homo sapiens, UniProt P10826;P19793 full;full)
Test: no ligand; PBM; 270 nM : 90 nM RXRa; PBS pH 7.4, 2% milk, 0.02% Triton X-100, 1 mM DTT, BSA, 0.4 mg/ml salmon testes DNA
Conditions: tags: His kept;His cleaved; copies: 1;1; label: surface-attached array probe
How it was run: (§1)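 The probes on custom Agilent 4×180K protein-binding microarrays were double-stranded, with 34-nt variable regions bearing direct-repeat seeds, single-nucleotide variants, half-site ablations and random human genomic background sequences. Incubation lasted 1 h with ligand-free nuclear receptor dimers in PBS pH 7.4, 2% milk, 0.02% Triton X-100, 1 mM DTT, 0.2 mg/mL BSA and 0.4 mg/ml salmon testes DNA. Antibodies against each partner (one per run) detected bound dimers, and fluorescence scans were regression-normalized. Binding z-scores take the random background probes as reference.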

Sequence of RARb:RXRa (P10826 whole entry, chain 1 of 2): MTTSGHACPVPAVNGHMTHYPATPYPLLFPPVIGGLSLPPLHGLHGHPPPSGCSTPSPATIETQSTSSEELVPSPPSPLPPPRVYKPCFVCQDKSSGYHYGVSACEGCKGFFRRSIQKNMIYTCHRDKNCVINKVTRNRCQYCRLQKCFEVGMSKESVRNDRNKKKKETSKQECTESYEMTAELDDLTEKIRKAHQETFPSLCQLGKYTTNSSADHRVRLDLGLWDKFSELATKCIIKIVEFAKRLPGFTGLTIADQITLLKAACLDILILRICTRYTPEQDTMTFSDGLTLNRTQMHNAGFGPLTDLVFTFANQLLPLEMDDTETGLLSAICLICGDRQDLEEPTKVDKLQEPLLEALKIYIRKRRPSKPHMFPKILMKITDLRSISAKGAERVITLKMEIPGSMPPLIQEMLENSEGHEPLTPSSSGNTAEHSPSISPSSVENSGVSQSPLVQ
Sequence of RARb:RXRa (P19793 whole entry, chain 2 of 2): as the sequence (P19793 whole entry) above

Binder | binding signal
B1 | -0.05 PBM z-score against 500 random probes
B2 | -0.61 PBM z-score against 500 random probes
B3 | 5.63 PBM z-score against 500 random probes
B4 | 5.7 PBM z-score against 500 random probes
B5 | -1.11 PBM z-score against 500 random probes
B7 | 6 PBM z-score against 500 random probes
B8 | -0.19 PBM z-score against 500 random probes

Biological target: VDR:RXRa (Homo sapiens, UniProt P11473;P19793 full;full)
Test: as above
Conditions: tags: His kept;His cleaved; copies: 1;1; label: surface-attached array probe
How it was run: as §1

Sequence of VDR:RXRa (P11473 whole entry, chain 1 of 2): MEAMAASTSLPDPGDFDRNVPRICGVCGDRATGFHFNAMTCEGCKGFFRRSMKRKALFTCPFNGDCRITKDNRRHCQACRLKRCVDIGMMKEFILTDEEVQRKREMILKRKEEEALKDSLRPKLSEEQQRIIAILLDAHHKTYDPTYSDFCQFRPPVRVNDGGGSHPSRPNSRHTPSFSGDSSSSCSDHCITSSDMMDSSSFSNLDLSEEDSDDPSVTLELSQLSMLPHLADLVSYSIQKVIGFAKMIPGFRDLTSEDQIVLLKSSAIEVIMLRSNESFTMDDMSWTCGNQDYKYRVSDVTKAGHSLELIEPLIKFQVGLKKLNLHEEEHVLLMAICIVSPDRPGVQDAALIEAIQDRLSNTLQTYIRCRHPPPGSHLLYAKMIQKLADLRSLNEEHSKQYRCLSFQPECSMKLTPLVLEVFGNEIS
Sequence of VDR:RXRa (P19793 whole entry, chain 2 of 2): as the sequence (P19793 whole entry) above

Binder | binding signal
B9 | 8.45 PBM z-score against 500 random probes
B10 | 7.03 PBM z-score against 500 random probes
B11 | 6.9 PBM z-score against 500 random probes
B12 | 6.73 PBM z-score against 500 random probes
B13 | 6.93 PBM z-score against 500 random probes
B14 | 7.63 PBM z-score against 500 random probes
B15 | 6.63 PBM z-score against 500 random probes
B16 | 7.63 PBM z-score against 500 random probes
B17 | 6.59 PBM z-score against 500 random probes
B18 | 6.73 PBM z-score against 500 random probes
B19 | 7.03 PBM z-score against 500 random probes
B20 | 6.62 PBM z-score against 500 random probes
B21 | 6.93 PBM z-score against 500 random probes
B22 | 8.27 PBM z-score against 500 random probes
B23 | 6.9 PBM z-score against 500 random probes
B24 | 6.76 PBM z-score against 500 random probes
B25 | 7.34 PBM z-score against 500 random probes
B26 | 7.66 PBM z-score against 500 random probes
B27 | 7.59 PBM z-score against 500 random probes

Biological target: PPARa:RXRa (Homo sapiens, UniProt Q07869;P19793 full;full)
Test: as above
Conditions: tags: GST kept;His cleaved; copies: 1;1; label: surface-attached array probe
How it was run: as §1

Sequence of PPARa:RXRa (Q07869 whole entry, chain 1 of 2): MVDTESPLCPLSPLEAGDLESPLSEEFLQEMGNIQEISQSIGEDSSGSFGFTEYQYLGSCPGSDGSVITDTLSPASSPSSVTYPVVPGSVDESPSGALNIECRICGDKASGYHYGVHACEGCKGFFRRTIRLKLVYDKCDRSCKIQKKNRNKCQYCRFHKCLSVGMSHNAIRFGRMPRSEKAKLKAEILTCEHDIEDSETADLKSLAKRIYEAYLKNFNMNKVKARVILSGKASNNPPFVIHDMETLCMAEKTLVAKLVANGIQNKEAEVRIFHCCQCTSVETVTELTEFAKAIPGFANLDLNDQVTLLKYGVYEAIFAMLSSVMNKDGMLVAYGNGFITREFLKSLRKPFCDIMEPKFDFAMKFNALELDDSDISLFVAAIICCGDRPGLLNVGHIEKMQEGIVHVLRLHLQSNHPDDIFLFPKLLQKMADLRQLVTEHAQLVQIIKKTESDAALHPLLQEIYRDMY
Sequence of PPARa:RXRa (P19793 whole entry, chain 2 of 2): as the sequence (P19793 whole entry) above

Binder | binding signal
B1 | -0.32 PBM z-score against 500 random probes
B3 | 6.82 PBM z-score against 500 random probes
B6 | 6.49 PBM z-score against 500 random probes
B7 | 7.03 PBM z-score against 500 random probes

Biological target: FXR:RXRa (Homo sapiens, UniProt Q96RI1;P19793 full;full)
Test: as above
Conditions: tags: His kept;His cleaved; copies: 1;1; label: surface-attached array probe
How it was run: as §1

Sequence of FXR:RXRa (Q96RI1 whole entry, chain 1 of 2): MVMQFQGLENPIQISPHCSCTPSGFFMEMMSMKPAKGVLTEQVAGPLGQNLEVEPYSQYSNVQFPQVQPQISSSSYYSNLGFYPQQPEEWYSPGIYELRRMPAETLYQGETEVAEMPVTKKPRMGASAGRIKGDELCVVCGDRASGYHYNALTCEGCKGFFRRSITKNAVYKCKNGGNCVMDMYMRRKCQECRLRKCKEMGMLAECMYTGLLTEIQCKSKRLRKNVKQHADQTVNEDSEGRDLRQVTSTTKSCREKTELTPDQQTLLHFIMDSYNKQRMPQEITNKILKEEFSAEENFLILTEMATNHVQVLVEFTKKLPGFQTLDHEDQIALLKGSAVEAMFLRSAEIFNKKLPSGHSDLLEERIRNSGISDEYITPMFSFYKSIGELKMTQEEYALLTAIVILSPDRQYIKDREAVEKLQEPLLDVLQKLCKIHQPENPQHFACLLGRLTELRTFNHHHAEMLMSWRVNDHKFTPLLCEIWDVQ
Sequence of FXR:RXRa (P19793 whole entry, chain 2 of 2): as the sequence (P19793 whole entry) above

Binder | binding signal
B3 | 7.97 PBM z-score against 500 random probes
B6 | 8.4 PBM z-score against 500 random probes
B7 | 8.42 PBM z-score against 500 random probes

Biological target: RARg:RXRa (Homo sapiens, UniProt P13631;P19793 full;full)
Test: as above
Conditions: tags: His kept;His cleaved; copies: 1;1; label: surface-attached array probe
How it was run: as §1

Sequence of RARg:RXRa (P13631 whole entry, chain 1 of 2): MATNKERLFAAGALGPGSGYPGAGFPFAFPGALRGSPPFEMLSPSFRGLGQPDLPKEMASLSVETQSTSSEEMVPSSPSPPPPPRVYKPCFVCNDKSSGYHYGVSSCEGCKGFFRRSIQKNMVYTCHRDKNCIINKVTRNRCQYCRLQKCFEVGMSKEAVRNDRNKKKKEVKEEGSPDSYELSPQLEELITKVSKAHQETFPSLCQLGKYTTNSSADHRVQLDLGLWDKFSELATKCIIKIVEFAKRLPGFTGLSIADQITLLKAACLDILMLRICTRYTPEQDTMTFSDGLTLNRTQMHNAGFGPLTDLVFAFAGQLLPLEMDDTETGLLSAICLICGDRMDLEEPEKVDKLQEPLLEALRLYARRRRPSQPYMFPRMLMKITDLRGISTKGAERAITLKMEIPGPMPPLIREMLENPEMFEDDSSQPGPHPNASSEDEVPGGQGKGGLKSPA
Sequence of RARg:RXRa (P19793 whole entry, chain 2 of 2): as the sequence (P19793 whole entry) above

Binder | binding signal
B4 | 7.39 PBM z-score against 500 random probes
B6 | 7.45 PBM z-score against 500 random probes
B7 | 7.41 PBM z-score against 500 random probes

Reference: PMC6555819, “Comprehensive study of nuclear receptor DNA binding provides a revised framework for understanding receptor specificity”
